Three molecules from article PMC5865150, “Structure and evolution of the Fam20 kinases” (Nature Communications, 2018) can be followed below.

First the molecules themselves.
B1: purified human Fam20C (residues 63-584) of the solution studies (domain or fragment, UniProt Q8IXL6 63-584, looked up)
chain: VRGRPGEPPAASSAAGDAGWPNKHTLRILQDFSSDPSSNLSSHSLEKLPPAAEPAERALRGRDPGALRPHDPAHRPLLRDPGPRRSESPPGPGGDASLLARLFEHPLYRVAVPPLTEEDVLFNVNSDTRLSPKAAENPDWPHAGAEGAEFLSPGEAAVDSYPNWLKFHIGINRYELYSRHNPAIEALLHDLSSQRITSVAMKSGGTQLKLIMTFQNYGQALFKPMKQTREQETPPDFFYFSDYERHNAEIAAFHLDRILDFRRVPPVAGRMVNMTKEIRDVTRDKKLWRTFFISPANNICFYGECSYYCSTEHALCGKPDQIEGSLAAFLPDLSLAKRKTWRNPWRRSYHKRKKAEWEVDPDYCEEVKQTPPYDSSHRILDVMDMTIFDFLMGNMDRHHYETFEKFGNETFIIHLDNGRGFGKYSHDELSILVPLQQCCRIRKSTYLRLQLLAKEEYKLSLLMAESLRGDQVAPVLYQPHLEALDRRLRVVLKAVRDCVERNGLHSVVDDDLDTEHRAASAR
notes: human Fam20C, residues 63-584; otherwise the same construct as m2 and m8; also called WT Fam20C; hsFam20C; source: High Five insect cells (baculovirus), conditioned medium, purified

Series [1] concerns the molecule itself. In words: AUC; purified Fam20C alone; oligomerises in a concentration-dependent manner; ~1 mg per ml.
Series [2] deals with T1, human Fam20C (residues 63-584), untagged (human, UniProt Q8IXL6 63-584).
T1 construct: human Fam20C, residues 63-584; also called hsFam20C; source: High Five insect cells (baculovirus), conditioned medium, purified (Ni-NTA, TEV digestion, Resource Q, size exclusion); not shown: His6, N-terminal, cleaved; MBP, N-terminal, cleaved
T1 sequence (looked up): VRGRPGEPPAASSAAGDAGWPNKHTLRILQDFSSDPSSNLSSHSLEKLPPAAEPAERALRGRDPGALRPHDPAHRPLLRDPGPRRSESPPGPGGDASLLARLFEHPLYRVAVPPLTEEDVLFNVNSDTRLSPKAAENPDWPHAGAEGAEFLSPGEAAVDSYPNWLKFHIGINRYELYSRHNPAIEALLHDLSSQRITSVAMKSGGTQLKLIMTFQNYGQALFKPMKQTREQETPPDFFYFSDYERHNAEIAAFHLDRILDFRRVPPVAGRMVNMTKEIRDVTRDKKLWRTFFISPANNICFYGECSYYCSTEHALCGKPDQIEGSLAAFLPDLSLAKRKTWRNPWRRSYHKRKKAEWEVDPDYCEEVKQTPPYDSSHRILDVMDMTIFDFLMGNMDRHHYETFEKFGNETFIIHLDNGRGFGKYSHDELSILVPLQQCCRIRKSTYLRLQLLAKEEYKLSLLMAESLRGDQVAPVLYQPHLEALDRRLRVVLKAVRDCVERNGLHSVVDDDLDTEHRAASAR
In words: crystal structure; human Fam20A-Fam20C complex, formed with 0.25 mM ATP and purified by size exclusion; crystals at 20 °C in 2% 1,4-dioxane, 0.1 M Bicine pH 9.0, 9% PEG 20,000. Particulars: both partners purified. A general note: SEC sorts molecules by how far they enter the pores of the column.

Series [3] addresses B1. The experiment in a line: SEC; Fam20A mutants with human Fam20C; tetramer formation followed (Supplementary Fig. 5D). Particulars: both partners purified.

One may read the stoichiometry N as a count of units in the complex or per binding partner. In the case of B1, the “stoichiometry N” value in series [1] turned out to be 2.

B2: human Fam20A (residues 69-529), untagged (domain or fragment, UniProt Q96MK3 69-529, looked up)
chain: HNFSRTEPRTEPAGGSHSGSSSKLQALFAHPLYNVPEEPPLLGAEDSLLASQEALRYYRRKVARWNRRHKMYREQMNLTSLDPPLQLRLEASWVQFHLGINRHGLYSRSSPVVSKLLQDMRHFPTISADYSQDEKALLGACDCTQIVKPSGVHLKLVLRFSDFGKAMFKPMRQQRDEETPVDFFYFIDFQRHNAEIAAFHLDRILDFRRVPPTVGRIVNVTKEILEVTKNEILQSVFFVSPASNVCFFAKCPYMCKTEYAVCGNPHLLEGSLSAFLPSLNLAPRLSVPNPWIRSYTLAGKEEWEVNPLYCDTVKQIYPYNNSQRLLNVIDMAIFDFLIGNMDRHHYEMFTKFGDDGFLIHLDNARGFGRHSHDEISILSPLSQCCMIKKKTLLHLQLLAQADYRLSDVMRESLLEDQLSPVLTEPHLLALDRRLQTILRTVEGCIVAHGQQSVIVDGPVEQ
notes: human Fam20A, pseudokinase, residues 69-529; Crystallised and kept with 0.25 mM ATP; also called hsFam20A; source: High Five insect cells (baculovirus), conditioned medium, purified (Ni-NTA, TEV digestion, Resource Q, size exclusion); not shown: His6, N-terminal, cleaved; MBP, N-terminal, cleaved
Turning to B2, the binding result in series [2] is “binds”.

B3: Fam20A E299G/I300S (domain or fragment, human, UniProt Q96MK3 69-529, looked up)
chain: HNFSRTEPRTEPAGGSHSGSSSKLQALFAHPLYNVPEEPPLLGAEDSLLASQEALRYYRRKVARWNRRHKMYREQMNLTSLDPPLQLRLEASWVQFHLGINRHGLYSRSSPVVSKLLQDMRHFPTISADYSQDEKALLGACDCTQIVKPSGVHLKLVLRFSDFGKAMFKPMRQQRDEETPVDFFYFIDFQRHNAEIAAFHLDRILDFRRVPPTVGRIVNVTKEILEVTKNGSLQSVFFVSPASNVCFFAKCPYMCKTEYAVCGNPHLLEGSLSAFLPSLNLAPRLSVPNPWIRSYTLAGKEEWEVNPLYCDTVKQIYPYNNSQRLLNVIDMAIFDFLIGNMDRHHYEMFTKFGDDGFLIHLDNARGFGRHSHDEISILSPLSQCCMIKKKTLLHLQLLAQADYRLSDVMRESLLEDQLSPVLTEPHLLALDRRLQTILRTVEGCIVAHGQQSVIVDGPVEQ
notes: human Fam20A, residues 69-529; The mutations create a site for N-linked glycosylation (Asn298-Gly299-Ser300); The limits are those of the only insect-cell Fam20A construct told in the methods; source: High Five insect cells (baculovirus), conditioned medium, purified as the WT protein
Regarding B3, the binding result in series [3] is reported as “binds”.
